The numbers were not newly measured in publication PMC3174036, which cites them from elsewhere.

What is called Kd is the equilibrium constant for the complex coming apart.

This data set deals with VEGFR-2 D7 D7 (Homo sapiens) (UniProt P35968).

Consider VEGFR-2 D7 D7 (from UniProt P35968), for which the Kd is 100 µM.
